Values of other authors as cited in publication PMC9898751 (The Journal of Biological Chemistry, 2022).

Assays:
H3K9me2 = details: H3K4me3 present in cis; ref [35]
H3K27me2 = details: H3K4me3 present in cis; ref [35]
peptide substrates = details: mass spectrometry– and fluorescence-based demethylase assays on peptide substrates; ref [28]
[1] = phosphorylation by protein kinase A; ref [29]
[2] = tested on: histone peptide bearing H3K4me3 and H3K9me2 in cis; details: in contrast to PHF8; ref [28]

B1: KIAA1718: KDM7 family Jumonji demethylase (protein, UniProt Q6ZMT4 1-941, looked up)
Lysine-specific demethylase 7A: MAGAAAAVAAGAAAGAAAAAVSVAAPGRASAPPPPPPVYCVCRQPYDVNRFMIECDICKDWFHGSCVGVEEHHAVDIDLYHCPNCAVLHGSSLMKKRRNWHRHDYTEIDDGSKPVQAGTRTFIKELRSRVFPSADEIIIKMHGSQLTQRYLEKHGFDVPIMVPKLDDLGLRLPSPTFSVMDVERYVGGDKVIDVIDVARQADSKMTLHNYVKYFMNPNRPKVLNVISLEFSDTKMSELVEVPDIAKKLSWVENYWPDDSVFPKPFVQKYCLMGVQDSYTDFHIDFGGTSVWYHVLWGEKIFYLIKPTDENLARYESWSSSVTQSEVFFGDKVDKCYKCVVKQGHTLFVPTGWIHAVLTSQDCMAFGGNFLHNLNIGMQLRCYEMEKRLKTPDLFKFPFFEAICWFVAKNLLETLKELREDGFQPQTYLVQGVKALHTALKLWMKKELVSEHAFEIPDNVRPGHLIKELSKVIRAIEEENGKPVKSQGIPIVCPVSRSSNEATSPYHSRRKMRKLRDHNVRTPSNLDILELHTREVLKRLEMCPWEEDILSSKLNGKFNKHLQPSSTVPEWRAKDNDLRLLLTNGRIIKDERQPFADQSLYTADSENEEDKRRTKKAKMKIEESSGVEGVEHEESQKPLNGFFTRVKSELRSRSSGYSDISESEDSGPECTALKSIFTTEESESSGDEKKQEITSNFKEESNVMRNFLQKSQKPSRSEIPIKRECPTSTSTEEEAIQGMLSMAGLHYSTCLQRQIQSTDCSGERNSLQDPSSCHGSNHEVRQLYRYDKPVECGYHVKTEDPDLRTSSWIKQFDTSRFHPQDLSRSQKCIRKEGSSEISQRVQSRNYVDSSGSSLQNGKYMQNSNLTSGACQISNGSLSPERPVGETSFSVPLHPTKRPASNPPPISNQATKGKRPKKGMATAKQRLGKILKLNRNGHARFFV
H3K9me2
  activity on H3K9me2 with H3K4me3 in cis: inactive on H3K9me2 when H3K4me3 is present in cis
H3K27me2
  activity toward H3K27me2 with H3K4me3 in cis: more selective toward H3K27me2

B2: PHF2: KDM7 family Jumonji demethylase (protein, UniProt O75151 1-1096, looked up)
Lysine-specific demethylase …: MATVPVYCVCRLPYDVTRFMIECDACKDWFHGSCVGVEEEEAPDIDIYHCPNCEKTHGKSTLKKKRTWHKHGPGQAPDVKPVQNGSQLFIKELRSRTFPSAEDVVARVPGSQLTLGYMEEHGFTEPILVPKKDGLGLAVPAPTFYVSDVENYVGPERSVDVTDVTKQKDCKMKLKEFVDYYYSTNRKRVLNVTNLEFSDTRMSSFVEPPDIVKKLSWVENYWPDDALLAKPKVTKYCLICVKDSYTDFHIDSGGASAWYHVLKGEKTFYLIRPASANISLYERWRSASNHSEMFFADQVDKCYKCIVKQGQTLFIPSGWIYATLTPVDCLAFAGHFLHSLSVEMQMRAYEVERRLKLGSLTQFPNFETACWYMGKHLLEAFKGSHKSGKQLPPHLVQGAKILNGAFRSWTKKQALAEHEDELPEHFKPSQLIKDLAKEIRLSENASKAVRPEVNTVASSDEVCDGDREKEEPPSPIEATPPQSLLEKVSKKKTPKTVKMPKPSKIPKPPKPPKPPRPPKTLKLKDGGKKKGKKSRESASPTIPNLDLLEAHTKEALTKMEPPKKGKATKSVLSVPNKDVVHMQNDVERLEIREQTKSKSEAKWKYKNSKPDSLLKMEEEQKLEKSPLAGNKDNKFSFSFSNKKLLGSKALRPPTSPGVFGALQNFKEDKPKPVRDEYEYVSDDGELKIDEFPIRRKKNAPKRDLSFLLDKKAVLPTPVTKPKLDSAAYKSDDSSDEGSLHIDTDTKPGRNARVKKESGSSAAGILDLLQASEEVGALEYNPSSQPPASPSTQEAIQGMLSMANLQASDSCLQTTWGAGQAKGSSLAAHGARKNGGGSGKSAGKRLLKRAAKNSVDLDDYEEEQDHLDACFKDSDYVYPSLESDEDNPIFKSRSKKRKGSDDAPYSPTARVGPSVPRQDRPVREGTRVASIETGLAAAAAKLSQQEEQKSKKKKSAKRKLTPNTTSPSTSTSISAGTTSTSTTPASTTPASTTPASTSTASSQASQEGSSPEPPPESHSSSLADHEYTAAGTFTGAQAGRTSQPMAPGVFLTQRRPSASSPNNNTAAKGKRTKKGMATAKQRLGKILKIHRNGKLLL
Peptide substrates
  enzymatic activity in vitro: enzymatically inactive in vitro
[1]
  activity before phosphorylation: remains inactive until it is phosphorylated by protein kinase A
[2]
  activity on single histone peptide bearing H3K4me3 and H3K9me2 in cis: cannot act on a single histone peptide bearing H3K4me3 and H3K9me2 in cis
